# Reference: a protein production outcome set (Wang et al. 2014)
# Experiment: label from the status in PepcDB records
# 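Further: failed if final PepcDB status was selected cloned or expressed and not failed if soluble or beyond.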
row,Sequence,protein production
1,MLNLSSIMKPNEIMKNWIDPEAKAEAERYDNPIPSRTLILTTLEQLDLPQSHAELVDHFDIHDQKSIDALSHRLIAMVRDGQLSKDGFKFQPIGEQPTFDATVYINNKGFGSAHIDGQNDLLLPERELRLVFNGDRVKVRQTSVDRKGKAWGFITEVTQHRVKQLIGKLAVHEGEYFLQPSAPNAHQPIPLEKELIEHAQAKVGENLRVAIDDYPTREEFSTGHIIQSMSDKADTEIIIPQTILEFGLPYEFPEEVVKDAESFKEPSKKDIEGRIDLRDLPLVTIDGEDARDFDDAVYAEKRSGGGYRVVVAIADVSHYVRLGKPLDDEAQERGTSVYFPHFVLPMLPEALSNGLCSLNPHVDRLCMVCDLKLSRAGRVMSYEFYPSVMHSKARLTYTQVGNYFDGQTDAIPDDKNIQKSLNTLFQLYQTLKGLRAKRHAMEFETIETYMTFDELGGIKEILPRTRNEAHKLIEECMLLANVAAAEFSLQHDIPMLYRVHEAPEFSRIQKVKDFVKLLGLPFPDQPTQADYQRVIEATKDRIDAPSIHAVLLRSMMQAYYGAKNAGHYGLAYEAYTHFTSPIRRYPDLLLHRAIKAHLQQKPYPLSGAALDDAGEQFSRTERRADEASRSVTTWLKCHYMKQHLGEEFIGIISAVTEFGLFVTLKDLYVDGMIHVSQLGDDFFLYDQASQSLVGQNRGQIFGLGDEVKIKVAAVNLDERKIDFELMQQITHAGRVIRQKAPRSSKTQATEQVFNVPSETTSTQERDTRKKEKSKSKPSSYAKKSAKKSSPASVSKPVKEKKKVKVKKKKSNAKPKSE,failed
2,MLNPRIKWSSRKFGNLFDVILHLFFSDTFLFKEIPVDVDQLLVTWDGKLVSCLPTGTRGNYLCKVSSPPGVHRVSVEVIYGGRRIVKTENVPLIDFDISLSLDKNSLLVKLLGYSDPDTISVKLNGTPLTPSRIGPGEYRVDITERGVAEVEVCISGICKRSIINVEPHLSLSDWDPSVWVGRNLYGYQVMEFLGEGGFSYVMKASSPGGVVALKIPKLTQSPASGLTRNVINVLDDLFKEQSALLELSDSPYLVKLVGVHLDRDSVRRALTEPRYYLEYPPMIVMEFMAGGSVSRLVKDDVQFYSDNWKTAVFMIISRISSGLLKIHEKGYVHCDVKPSNILLDREPPPTAGELYERMKRREVNPKLADLGSAVKIGGVPPGVTLEYSSLEQVTSTRYGGVNPRDDVYSLGATIYYLLTKRYLNSPMIPFMEKALGGGGLDNSVYALRDYSTLEAVGLDSKIVRFIKDMTSENRDKRPSSLEVFNFFTSLVN,failed
3,MLNPSLDIISLMAYLTSSSLVGLKLLNFSINLFISSSFLTFLKSLKCSLILPISMPANSGILFTAVSFMLARSLAMSSFGVFSSIINLFTTIHLPYLAVKLI,failed
4,MLNSAGKLIYGLCFLLVVCVNNAMAEVIHSERSLYRNILVEDNGDLRCLKFNVKSTKTRQSCLLKSQPQQLVFNYTKQLLTGLLVNPEPKHILIIGLGGGTMSNTLHQLLPDSYIDNVEIDESVIKVARQYFGFLENDQIKTYSQDGRVFVKRALLKKQEYDWIILDAFNGDYIPEHLMTKEYLEETKRLLSPQGILTANTFSSSQLYRYESATYKAVFGDYYQVSNPDNSNRIILARNSGLDENLYKELAAAEQSESITQLAIKLLAIGVEVKQLYKNIKSTATHQDWPDDSPVLTDQFSPANLLNIDVD,failed
5,MLPDVFRADTGSRSLIQAQSDAQAVLTWLAEHADRPATLAAYRKEAERLLLWLAPRRQTLAQVKREDVLDYRRFLASPHPAEQWLGPARPRSHPDWKPFSKPLSPASVEHSLTVLGALFAYLNDAGYLNGNPFKLLRRRGARKSAQEIERFLDADCWRHLQATLNGLPRGSDREIRHAERALWLFTLLYLTGARRAEAAAARACDLARRNGNWWWHVVGKGGVSARIPLSDELMDALARYRLSLGLPPQPAADEDTPLVCRVGSKGQAKPLSDKAIYLVCKEVFGRAQAAAPNEDIRAKLRAASTHWLRHTAASHQLEAGVPLLLVSQNLRHASIQTTRRYLHSEEDARHEASRLHKLKRDS,failed
6,MLPHSGRMVLIDRITRYGDDFVEAGAQVKPDHILLAGGMLPYTAFIELMAQAVGAYAGIQARKNARPVRLGFLPGTRKLEIFAQSVPVGTHLPATAHMSIQDAGVWACPTANCVGRMRRKLRPEHSFQTAFWHAPHSTCTAPNTMTEQLTPSEQAHIRRTTMTETVLITGSNRGIGKAAALEHHHHHH,failed
7,MLPKRQLFLDRLNQALAWSQFSGVPGALLLIDLGLPAHLDGSPSLSPDAEENLEIIANRLQAYVRPHETLAHLNHHQFGLLLLDPDVQLRAEERAHGIQTLIRDRLAGFEGGAHIGIVPLTPETPATVLLQAAEAAAMTARSQQQGHLSLEASLEHHHHHH,not failed
8,MLPLNDYLQPFGLVIKPMQEDLTPYLGIKVKSEAGQEKITFVAAHSPAAMAGISPQDLLLAINGVRVGAEQLSLRLKDYQANDMIQLTVFHQDLLRTVDVVLASPQANRYEVVPIADPSDSQLEHHHHHH,not failed
9,MLPLTLIAILSLGIVEGLDPYKGLLFSYYFYSFRKVKESYVVPIVSTITYYIVGILIVEWLNISDNILTRGIMFSLLLVHVLIKLVIGKVLHYPSNMRPKILNVIQWSAINSIIQMNFIILLTLSILSKPSLILLPITVIIVRETTYCLSVKNNKILLKLTEYNFDYFYLITVLLLGIVIILPLL,failed
10,MLPMLLWLVANLFLAPAAEGFHGMNKTNTWAVILSSSRYFFNLRHTTNALAMYHLCRKHGMDDDHILVFLSDSYACDPRKPNPATIYGAPAQAEQPNLYGCNIRVDYASYDVGVRRFLGVLQGRYDENTPPSRRLDTDENSNIIIYAAGHSAEKFFKFQDSEFMSSTDIADTLMMMWEQRRYRKLVFLVDTCRALSLCLEIKAPNVVCLASSEAHLDSYSHHLDPPSGFTVITRWTFEFLEVLKDSKCRPENGEVTLLQKSFYDFNYGPERLSLPQPLSEPAHFDAVNRPNAIREWKMDEFFCEQDRDKIPVELRYDLF,failed
11,MLPPPPSASPAARENTDPGGHRADSGVSYSKIDPVGTFVRLLGLIAPAWQAVLGATLLGSGTIASNIGLMATAAFLIASAALHPPAGKLMLAIVGVRFFGITRAVCRYLERYVNHSITLGILGRLRVAFYRTLEPLIPAGLQGHHSGDLLSRAVADVATLENFYLRVLNPPLVALPVAAGVFLFLAHFGRTLALAWMGAFLAAGVIFPVGVTIVGRGVMRRQGEARAALNTALVDTVQGLADILVFDHGRQQQEYIATLDRQYLHLQGRKAGLNGLANALTSLASNLALWAVLVLAIPLVNRGQIDGVYLAMLALTAAAALEAAKPLPMLFPHLEGSLAAARRIFALSDTRPAGDPAGPVPHPRDFSLRVQGLRFRYGPGEPPALDGIDFDVPSGARIAIVGPSGAGKSTLVNLLLRFWDYEEGAILLGGYDLKAYPPEELQRFIGVVAQPTHLFHATIAENLLLARPDATREEMERAAREARLHEFIQVLPRGYDTLIGEEGFKLSGGQRQRLAIARALLQNAPILILDEATTGLDAVTEREVMDSIRHLMEGRTTLVITHRLVGLEDMDKILVLDRGRLVQQGRHAELLRQEGLYRHLWQLQQEALP,failed
12,MLPPYNYMDNGTLKGISIDLLEAITEKMGKKVTREEIHLVSWTEGYQAALTRNNTVLFVTARTPEREQSFKWVGPIYSDKYVLFAKRDPGVTIDGPEDLKEYRIGVISDDVAAQQLLNIGLEHHHHHH,not failed
13,MLQKPVQLLLWVAICLLVLLTVYVFFMLDMLWSPFWLVIKTIFIPLIISIFISYLLLPVTEWLHGKGLPRTLSILVIYVLFFGGIGWALYKGVPVLIVQLTDLSENIPMFAETYNGLLLHVHNHTDDWPDGMHHRIDKMIRQTEAFFAGTIEGAISGIRNVLDYFLIAATIPFLVFYMVKDIELMKKTVWYLTPKSWRKRGSAFLRDVDDSLGDYIRGQLLVCLILGVIAGISFWVFGLPYPLILGLISGVTNVIPYFGPFIGAVPALLIAMTISVKAVLVVVITVFILQFMEGNILSPFIVGRSLKMHPVVIMLALLAGGELAGIVGMILAVPATAVLKVMMIHFLRMRTEH,not failed
14,MLQMNLEELRRIQEEMSRSVVLEDLIPLEELEYVVGVDQAFISDEVVSCAVKLTFPELEVVDKAVRVEKVTFPYIPTFLMFREGEPAVNAVKGLVDDRAAIMVDGSGIAHPRRCGLATYIALKLRKPTVGITKKRLFGEMVEVEDGLWRLLDGSETIGYALKSCRRCKPIFISPGSYISPDSALELTRKCLKGYKLPEPIRIADKLTKEVKRELTPTSKLKLEHHHHHH,failed
15,MLQNIPTHVIGGPLGAGKTSLIKRLLAQKPAHERWAVLINEFGQIGLDAALLTTTADGIALGEVAGGCLCCVNGVPFQIGLGRLLRKARPDRLLIEPSGLGHPAQLMAQLREAPWRGVLTVQPGVMVLDAAAMATGQPLPATQQEALAEAGLVVMNKSEQLDEAARQALAEQMKPCALLWTRHADLSLSRLPGFVEGTAVDKHAVDNLTLPNSIGRLPALWADPNVPICLSQTSAEGWSVGWRWHPSQQFDLQRVLHWLEGMAWRRAKVVIHSEGGWYSGNVLEGAPLAWQISEWRQDSRLELIFSAPQDVDTLQAQMAGCLA,failed
16,MLQRLFIFLLIFLILPDIYLYLRFIVHLTAKRWLRILYWLPAFLLSAGLLYLVYFSNNAFAERHTQAIGWFSIFFFLFTAPKLLLSLCTIIGVPFHKWLRWPRTPFICTGLTLAVISIVMIIYGSFIGRTQFDVKEVTYSSPKLPSAFDGYRIVQLSDIHIGSWQGNASAIQKLVKLVNEQQADLIVFTGDLVNHRAVELNDFQDILAGLKAKDGVYSILGNHDYGPYFHWKSKDEQDDNLNDLLQRQAAMGWKLLNNSHTILIQGSDSIALIGVENEGEPPFSQYADLPEAMRGTEGMFQILLSHNPTHWRREVLPQTYIDLMLAGHTHAMQLKFGNHSPSSYIYPEWSGMYLEGTRGLYVNEGIGYVGLPFRFGAWPEITVLTLRQ,failed
17,MLRHILTAKNLLSNPIFKFPNCLPFLSTVCCICRQFVGENLCSFADSPSLFEMWFHFLQLRSALNISSALRQVVHGTRWHAKRKSYKVLFWREITPLAVPIFMENACVLLMGVLSTFLVSWLGKDAMAGVGLADSFNMVIMAFFAAIDLGTTVVVAFSLGKRDRRRARVATRQSLVIMTLFAVLLATLIHHFGEQIIDFVAGDATTEVKALALTYLELTVLSYPAAAITLIGSGALRGAGNTKIPLLINGSLNILNIIISGILIYGLFSWPGLGFVGAGLGLTISRYIGAVAILWVLAIGFNPALRISLKSYFKPLNFSIIWEVMGIGIPASVESVLFTSGRLLTQMFVAGMGTSVIAGNFIAFSIAALINLPGSALGSASTIITGRRLGVGQIAQAEIQLRHVFWLSTLGLTAIAWLTAPFAGVMASFYTQDPQVKHVVVILIWLNALFMPIWSASWVLPAGFKGARDARYAMWVSMLSMWGCRVVVGYVLGIMLGWGVVGVWMGMFADWAVRAVLFYWRMVTGRWLWKYPRPEPQKCEKKPVVSE,failed
18,MLRLARKGLQTAVVRSYAKDVKFGAEGRQAMLVGVNLLADAVSVTMGPKGRNVIIEQSWGSPKITKDGVTVAKSIDLKDKYQNLGAKLIQDVANKANEEAGDGTTCATVLARAIAKEGFESIRQGGNAVEIRRGVMNAVEVVVAELKKISKKVTTPEEIAQVATISANGDTVVGNLISDAMKKVGTTGVITVKDGKTLNDELELIEGMKFDRGYISPYFITSAKGAKVEYEKALVLLSEKKISQVQDIVPALELANKLRRPLVIIAEDVDGEALTTLVLNRLKVGLQVVAIKAPGFGDNRKNTLKDMGIATGATIFGDDSNLIKIEDITANDLGEVDEVTITKDDTLLLRGRGDQTEIEKRIEHITDEIEQSTSDYEKEKLNERLAKLSKGVAVLKIGGGSEVEVGEKKDRVTDALCATRAAVEEGIVPGGGVALLRSLTALKNYKAANEDQQIGVNIVKKALTQPIATIVKNAGLEPSSIIDEVTGNSNTSYGYDALNGKFVDMFEAGIIDPTKVVRTALQDASGVASLLATTECVVTEIPKEEAVGGPAGGMGGMGGMGGMGGMGF,not failed
19,MLRNTSHSYGGIARALHWLCALAVIAALVFIELKGNFPKGDPLRSGLGYAHVQAGLIVLLLVLPRLAWRLGNPPPAIEPAPSPAMNLLAHAGHWALYALMLALPILGIAFIQANGREVALFGLALPAFMPNDPPLGKELKEIHELLGNVLLWLSILHAAAAVWHHRFLKDDTLTRLTGPMR,failed
